Measured values reported in US20150299298A1 (TRELLIS BIOSCIENCE, published 2015).
Read-outs that look alike come from different tables or passages of the source.

Key:
[1] = target: T1, IHF from Staphylococcus aureus (Staphylococcus aureus, UniProt Q5HFV0 1-90); assay: ELISA at pH 6.5
T1 construct: mature; not shown: poly-histidine tag
T1 sequence: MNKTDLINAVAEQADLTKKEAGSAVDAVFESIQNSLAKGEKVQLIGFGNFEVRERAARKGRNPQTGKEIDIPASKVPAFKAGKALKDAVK

[2] = target: T2, IHF from Klebsiella pneumoniae (Klebsiella pneumoniae, UniProt A6TAI1 1-99); assay: ELISA at pH 6.5
T2 construct: also called IHF (Kp); K. pneumoniae
T2 sequence: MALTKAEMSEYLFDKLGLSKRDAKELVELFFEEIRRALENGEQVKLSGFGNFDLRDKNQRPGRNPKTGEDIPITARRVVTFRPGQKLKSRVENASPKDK

[3] = target: T3, IHF from Pseudomonas aeruginosa (Pseudomonas aeruginosa, UniProt Q51472 2-100); assay: ELISA at pH 6.5
T3 construct: mature; also called IHF (Pa); P. aeruginosa; not shown: poly-histidine tag
T3 sequence: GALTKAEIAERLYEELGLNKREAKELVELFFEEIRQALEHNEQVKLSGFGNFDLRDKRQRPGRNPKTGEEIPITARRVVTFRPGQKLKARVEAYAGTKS

[4] = target: T1, IHF from Staphylococcus aureus; assay: ELISA at pH 7.5
[5] = target: T2, IHF from Klebsiella pneumoniae; assay: ELISA at pH 7.5
[6] = target: T3, IHF from Pseudomonas aeruginosa; assay: ELISA at pH 7.5
[7] = target: T1, IHF from Staphylococcus aureus; assay: ELISA at pH 3.5
[8] = target: T2, IHF from Klebsiella pneumoniae; assay: ELISA at pH 3.5
[9] = target: T3, IHF from Pseudomonas aeruginosa; assay: ELISA at pH 3.5
[10] = target: T1, IHF from Staphylococcus aureus; assay: ELISA at pH 2.5
[11] = target: T2, IHF from Klebsiella pneumoniae; assay: ELISA at pH 2.5
[12] = target: T3, IHF from Pseudomonas aeruginosa; assay: ELISA at pH 2.5
[13] = target: T1, IHF from Staphylococcus aureus; assay: ELISA at pH 4.5
[14] = target: T2, IHF from Klebsiella pneumoniae; assay: ELISA at pH 4.5
[15] = target: T3, IHF from Pseudomonas aeruginosa; assay: ELISA at pH 4.5
[16] = target: T1, IHF from Staphylococcus aureus; assay: ELISA at pH 5.5
[17] = target: T2, IHF from Klebsiella pneumoniae; assay: ELISA at pH 5.5
[18] = target: T3, IHF from Pseudomonas aeruginosa; assay: ELISA at pH 5.5
[19] = target: T1, IHF from Staphylococcus aureus; assay: ELISA on IHF from S. aureus (IHF-Sa ELISA), OD 450 nm against [mAb] nM
[20] = target: T1, IHF from Staphylococcus aureus; assay: as above; remark: listed apart in the source
[21] = target: IHF from Staphylococcus aureus (Staphylococcus aureus) (UniProt Q5HFV0); assay: ELISA

B1: TRL1068 (antibody, V domains shown)
VH: QVQLVESGPGLVKPSETLSLTCRVSGDSNRPSYWSWIRQAPGKAMEWIGYVYDSGVTIYNPSLKGRVTISLDTSKTRFSLKLTSVIAADTAVYYCARERFDRTSYKSWWGQGTQVTVSS
VL: DIVLTQAPGTLSLSPGDRATLSCRASQRLGGTSLAWYQHRSGQAPRLILYGTSNRATDTPDRFSGSGSGTDFVLTISSLEPEDFAVYYCQQYGSPPYTFGQGTTLDIK
Binder B1 has an Affinity [1] of 0.012 nM, an Affinity [2] of 6 pM and an Affinity [3] of 5 pM. The Affinity [4] was 0.01 nM, the Affinity [5] was 6 pM and the Affinity [6] was 5 pM. The Affinity [7] was 0.36 nM, the Affinity [8] was 3 nM and the Affinity [9] was 0.26 nM. The Affinity [10] was 3.5 nM, the Affinity [11] was 2.6 nM and the Affinity [12] was 2.1 nM. It also gave an Affinity [13] of 0.012 nM, an Affinity [14] of 0.05 nM and an Affinity [15] of 9 pM. It also gave an Affinity [16] of 0.012 nM, an Affinity [17] of 9 pM and an Affinity [18] of 6 pM.

B2: TRL1338 (antibody, V domains shown)
VH: QLTLRESGPTLVKPTQTLTLTCTFSGFSLSTNGVGVGWIRQPPGKALEWLAIIYWDDDKRYSPSLKSRLTITKDTSKNQVVLTLTNMDPVDTGTYYCAHILGASNYWTGYLRYYFDYWGQGTLVTVST
VL: DIEMTQSPSVSVSPGQTARITCSGEPLAKQYAYWYQQKSGQAPVVVIYKDTERPSGIPERFSGSSSGTTVTLTISGVQAEDEADYHCESGDSSGTYPVFGGGTKLTVL
Binder B2 has a Kd [19] of 42 nM and a Kd [20] of 42 nM.

B3: TRL1230 (antibody, V domains shown)
VH: QVQLVQSGGGLVKPGGSLRLSCGASGFNLSSYSMNWVRQAPGKGLEWVSSISSRSSYIYYADSVQGRFTISRDNAKNSLYLQMNSLRAEDTAIYYCARVSPSTYYYYGMDVWGQGTTVTVSS
VL: DIVLTQPSSVSVSPGQTARITCSGDELPKQYAYWYQQKPGQAPVLVIYKDNERPSGIPERFSGSSSGTTVTLTISGVQAEDEADYYCQSADSSGTYVVFGGGTKLTVL
Work on B3 yielded an OD [21] of 0.1 OD.

B4: TRL1337 (antibody, V domains shown)
VH: QVQLLESGPGLVKPSETPSLTCTVSGGSIRSYYWSWIRQPPGKGLEWIGYIYYSGSTNYNPSLKSRVTISVDMSKNQFSLKLSSVTAADTAMYYCARVYGGSGSYDFDYWGQGTLVTVSS
VL: DIVLTQSPSASGSPGQSVTISCTGTSSDVGGYNYVSWYQQLPGKAPKLMIYEVTKRPSGVPDRFSGSKSGNTASLTVSGLQAEDEADYYCSSFAGSNNHVVFGGGTKLTVL
For B4, the Kd [19] was 6 nM and the Kd [20] was 6 nM.
